In assay [1] the target is T1, TPR domain of T. cruzi PEX5 (347–668) (T. cruzi, UniProt Q4DPQ9 347-668).
T1 construct: PEX5, Trypanosoma cruzi, C-terminal tetratricopeptide repeat (TPR) domain, residues 347-668; codon-optimised synthetic gene in the petHSU vector; The His-SUMO tag was cleaved on the column with dtUD1 protease; also called TcPEX5; TcPEX5 (TPR domain); source: E. coli BL21 (DE3), purified (HiTrap IMAC, on-column tag cleavage, SEC S75); not shown: His6, N-terminal, cleaved
T1 sequence (looked up): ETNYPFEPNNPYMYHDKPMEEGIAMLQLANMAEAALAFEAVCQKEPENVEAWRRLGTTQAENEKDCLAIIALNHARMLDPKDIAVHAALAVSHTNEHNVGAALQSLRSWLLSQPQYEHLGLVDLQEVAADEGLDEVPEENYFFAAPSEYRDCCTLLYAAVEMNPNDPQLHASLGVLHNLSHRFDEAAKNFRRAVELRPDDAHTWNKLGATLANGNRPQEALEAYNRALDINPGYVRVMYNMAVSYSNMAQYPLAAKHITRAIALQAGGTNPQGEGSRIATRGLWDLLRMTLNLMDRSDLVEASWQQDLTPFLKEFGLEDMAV
In words: fluorescence polarisation; saturation binding: 10 nM 6-FAM-PTS1 titrated with TcPEX5 (0.1–250 nM); 10 mM Hepes pH 7.5, 100 mM NaCl, 5% DMSO; one-site fit. The following applies: both partners purified. In general terms: In fluorescence polarisation assays a small probe gives low polarisation when free and higher when bound to something large.

Assay [2] addresses T1, TPR domain of T. cruzi PEX5 (347–668). The assay is described as follows: fluorescence polarisation; competitive: increasing unlabeled PTS1 added to 30 nM TcPEX5 (f0 = 0.8) and 10 nM 6-FAM-PTS1; Ki by curve fitting. Conditions: both partners purified.

Data on two molecules can be found in publication PMC9424529, “Small molecule mediated inhibition of protein cargo recognition by peroxisomal transport receptor PEX5 is toxic to Trypanosoma” (Scientific Reports, 2022).

Where no end group is shown, it is not given here. The star is where a group is joined. 6FAM = O=C1OC2(c3ccc(O)cc3Oc3cc(O)ccc32)c2cc(C(=O)*)ccc21

B1: 6-FAM-labelled PTS1 (6-FAM-YQSKL) (peptide)
peptide: 6FAM-YQSKL
notes: pentapeptide representing peroxisomal targeting signal 1 (PTS1); also called 6-FAM-PTS1; FAM-PTS1
What is called Kd is the free concentration of one partner at which half of the binding sites on the other are occupied at equilibrium, for simple one-to-one binding. With B1, in assay [1], the Kd came to 21 nM.

B2: unlabeled PTS1 peptide (peptide)
peptide: YQSKL
notes: pentapeptide representing PTS1, without the label; also called PTS1 alone; unlabeled PTS peptide
A word on the Ki: it is the equilibrium dissociation constant of an inhibitor or competing ligand from its target. The low end stands for a stronger hold on the target, the high end for a looser hold on the target. The molecule B2 displayed an inhibition constant (Ki) in assay [2] of 126 nM.
